From US20250051409A1, “MODULATORS OF PHOSPHATIDYLSERlNE DECARBOXYLASE AND USE THEREOF” (THE NATIONAL INSTITUTE FOR BIOTECHNOLOGY IN THE NEGEV LTD., priority 2021, published 2025) come the findings set out here.

The test has as its target Human recombinant SMAC (10339-H08E), Sino Biologicals (human) (UniProt Q9NR28). Briefly: microscale thermophoresis; fluorescently labelled SMAC (1 µM) with purified PSD (78-625 nM). A general note: Microscale thermophoresis detects binding through changes in fluorescence in a small temperature gradient.

pKd: −log10 of the molar value.

Chain of Human recombinant SMAC (10339-H08E), Sino Biologicals (human) (Q9NR28 56-239 limits assumed, stated change not applied): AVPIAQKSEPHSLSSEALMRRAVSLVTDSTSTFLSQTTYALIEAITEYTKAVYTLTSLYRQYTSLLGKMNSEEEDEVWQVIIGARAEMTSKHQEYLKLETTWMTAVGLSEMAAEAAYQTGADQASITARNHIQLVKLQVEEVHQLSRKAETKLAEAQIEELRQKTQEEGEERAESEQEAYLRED

By pKd is commonly meant the Kd on a negative log10 scale, so that one unit is a factor of ten. On to “Purified recombinant protein (full length) of human phosphatidylserine decarboxylase (PSD), with N-terminal His tag, expressed in E. coli (Acris-OriGene) (from UniProt Q58DH2 60-416) (enzyme)”, for which the negative logarithm of the Kd (pKd) is 6.61.
